Consider 1 protein from EP2468767B1 (dated 2007).

The series concerns the molecule itself. Nature of the series: gel filtration on Superdex 200 HR.

B1: IR485 (human insulin receptor residues 1-485 with enterokinase site and c-myc tag) (receptor)
chain: HLYPGEVCPGMDIRNNLTRLHELENCSVIEGHLQILLMFKTRPEDFRDLSFPKLIMITDYLLLFRVYGLESLKDLFPNLTVIRGSRLFFNYALVIFEMVHLKELGLYNLMNITRGSVRIEKNNELCYLATIDWSRILDSVEDNYIVLNKDDNEECGDICPGTAKGKTNCPATVINGQFVERCWTHSHCQKVCPTICKSHGCTAEGLCCHSECLGNCSQPDDPTKCVACRNFYLDGRCVETCPPPYYHFQDWRCVNFSFCQDLHHKCKNSRRQGCHQYVIHNNKCIPECPSGYTMNSSNLLCTPCLGPCPKVCHLLEGEKTIDSVTSAQELRGCTVINGSLIINIRGGNNLAAELEANLGLIEEISGYLKIRRSYALVSLSFFRKLRLIRGETLEIGNYSFYALDNQNLRQLWDWSKHNLTITQGKLFFHYNPKLCLSEIHKMEEVSGTKGRQERNDIALKTNGDQASCENELLKFSYIRTSFDKISDDDDKEQKLISEEDLN
Consider B1, for which the binding result was “binds”.
